# According to patent US20260242478A1 (published 2026):
# Tests used:
# 006 PSMA Fab [1] = target: T1, 006 PSMA Fab; assay: clonal phage ELISA on biotinylated PSMA Fab captured on neutravidin, wells pre-incubated with PSMA antigen as competitor, anti-M13 HRP detection
# T1 construct: In the phage ELISA the Fab was biotinylated and captured on neutravidin coated plates; also called Anti-PSMA Fab
# Procedure: (§1) Clonal phage were harvested as crude supernatants and screened via standard ELISAs. […] Prior to the addition of clonal phage. wells were incubated with blocking buffer and PSMA antigen or blocking buffer alone. Without washing or aspirating, clonal phage supernatants were then added to the wells and incubated for a short time. Wells were then washed followed by detection of bound phage using a horse radish conjugated anti-M13 antibody.
# 006 PSMA Fab [2] = target: T1, 006 PSMA Fab; assay: clonal phage ELISA on biotinylated PSMA Fab captured on neutravidin, anti-M13 HRP detection, no competitor
# Procedure: as §1
# PSMA Fab (006 PSMA Fab) [3] = target: T2, PSMA Fab (006 PSMA Fab); assay: phage ELISA; biotinylated PSMA Fab on neutravidin plate, clonal phage supernatant, anti-M13 HRP detection; blocking buffer alone
# T2 construct: also called Anti-PSMA Fab; anti-PSMA Fab
# Procedure: as §1
# PSMA Fab (006 PSMA Fab) [4] = target: T2, PSMA Fab (006 PSMA Fab); assay: phage ELISA; biotinylated PSMA Fab on neutravidin plate pre-incubated with PSMA antigen as competitor, clonal phage supernatant, anti-M13 HRP detection
# Procedure: as §1
# PSMA Fab (006 PSMA Fab) [5] = target: T3, PSMA Fab (006 PSMA Fab) (Fab biotinylated for capture on neutravidin plates (site not stated)); assay: phage ELISA: clonal phage supernatant on biotinylated PSMA Fab captured on neutravidin plate, blocking buffer alone, anti-M13-HRP detection
# T3 construct: also called Anti-PSMA Fab; anti-PSMA Fab
# PSMA Fab (006 PSMA Fab) [6] = target: T3, PSMA Fab (006 PSMA Fab); assay: phage ELISA: clonal phage supernatant on biotinylated PSMA Fab captured on neutravidin plate, wells pre-incubated with PSMA antigen as competitor, anti-M13-HRP detection
# Procedure: as §1
# PSMA Fab [7] = target: T4, PSMA Fab; assay: clonal phage ELISA on biotinylated PSMA Fab captured on neutravidin, anti-M13 HRP detection;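 note: crude clonal phage supernatants added to wells pretreated with PSMA antigen in blocking buffer or with blocking buffer only, then briefly incubated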
# T4 construct: Biotinylated and captured on neutravidin plates in the phage ELISA; also called Anti-PSMA Fab; 006 PSMA Fab
# Procedure: as §1
# PSMA Fab [8] = target: T4, PSMA Fab; assay: clonal phage ELISA on captured PSMA Fab pre-incubated with PSMA antigen (competitor)
# Procedure: as §1
Binder,"Phage binding ELISA signal, Anti-PSMA Fab with PSMA antigen (006 PSMA Fab [1])","Phage binding ELISA signal, Anti-PSMA Fab (006 PSMA Fab [2])","Phage binding ELISA signal, Anti-PSMA Fab (PSMA Fab (006 PSMA Fab) [3])","Phage binding ELISA signal, Anti-PSMA Fab in the presence of PSMA antigen (PSMA Fab (006 PSMA Fab) [4])",also measured
ITKACIPEWMCHAF [Phage-3061],0.0651,2.15,–,–,–
"PGQVCIPEWMCTGF (Peptide-180 library clone, tested as clonal phage supernatant (peptide fused to pIII of the bacteriophage)) [Phage-3051]",–,–,2.16,0.0874,–
GMVRCVPQWMCVGF [Phage-3065],0.111,2.14,–,–,–
SPYFCIPAWMCHGF [Phage-3071],0.121,2.13,–,–,–
"DMRLCRPVWMCEGF (Peptide-180 library clone, tested as clonal phage supernatant (peptide fused to pIII of the bacteriophage)) [Phage-3052]",–,–,2.16,0.13,–
TASWCKPGGACKGF [Phage-3074 (peptide-180 library clone)],–,–,–,–,"Phage binding ELISA signal, Anti-PSMA Fab (PSMA Fab (006 PSMA Fab) [5]): 2.12; Phage binding ELISA signal, Anti-PSMA Fab in presence of PSMA (PSMA Fab (006 PSMA Fab) [6]): 0.0801"
VERSCVPSWMCYGF [Phage-3066],0.0806,2.14,–,–,–
WLMRCEPQWMCAGF [Phage-3073],0.131,2.12,–,–,–
"EFAMCRPVWMCWGF (Peptide-180 library clone, tested as clonal phage supernatant (peptide fused to pIII of the bacteriophage)) [Phage-3059]",–,–,2.15,0.142,–
DEWICRPAWMCQGF [Phage-3076 (peptide-180 library clone)],–,–,–,–,"Phage binding ELISA signal, Anti-PSMA Fab (PSMA Fab (006 PSMA Fab) [5]): 2.12; Phage binding ELISA signal, Anti-PSMA Fab in presence of PSMA (PSMA Fab (006 PSMA Fab) [6]): 0.0632"
LLAECVAAWMCSGF [Phage-3067],0.0712,2.13,–,–,–
VVPMCSPSWMCQGF [Phage-3064],0.0725,2.14,–,–,–
YEQLCKPLWMCQGF [Phage-3075 (peptide-180 library clone)],–,–,–,–,"Phage binding ELISA signal, Anti-PSMA Fab (PSMA Fab (006 PSMA Fab) [5]): 2.12; Phage binding ELISA signal, Anti-PSMA Fab in presence of PSMA (PSMA Fab (006 PSMA Fab) [6]): 0.0628"
"DYPLCRPEWMCMGF (Peptide-180 library clone, tested as clonal phage supernatant (pIII display)) [Phage-3040]",–,–,–,–,"Phage binding ELISA signal, Anti-PSMA Fab (PSMA Fab [7]): 2.18; Phage binding ELISA signal, Anti-PSMA Fab with PSMA antigen (PSMA Fab [8]): 0.0813"
"TGPVCIPKWMCFGF (Peptide-180 library clone, tested as clonal phage supernatant (peptide fused to pIII of the bacteriophage)) [Phage-3057]",–,–,2.15,0.075,–
LSHMCRPAWMCEGF [Phage-3068],0.0938,2.13,–,–,–
"VEPQCRPAWMCYGF (Peptide-180 library clone, tested as clonal phage supernatant (pIII display)) [Phage-3038]",–,–,–,–,"Phage binding ELISA signal, Anti-PSMA Fab (PSMA Fab [7]): 2.18; Phage binding ELISA signal, Anti-PSMA Fab with PSMA antigen (PSMA Fab [8]): 0.0668"
"PVELCRPAWMCWGF (Peptide-180 library clone, tested as clonal phage supernatant (peptide fused to pIII of the bacteriophage)) [Phage-3055]",–,–,2.16,0.103,–
"DWVRCVPEWMCLGF (Peptide-180 library clone, tested as clonal phage supernatant (peptide fused to pIII of the bacteriophage)) [Phage-3058]",–,–,2.15,0.106,–
"IEMMCRPSWMCDWL (Peptide-180 library clone, tested as clonal phage supernatant (peptide fused to pIII of the bacteriophage)) [Phage-3056]",–,–,2.16,0.0844,–
"VNVKCTPPWMCFGF (Peptide-180 library clone, tested as clonal phage supernatant (peptide fused to pIII of the bacteriophage)) [Phage-3049]",–,–,2.16,0.0865,–
"VAPSCVPLWMCVGM (Peptide-180 library clone, tested as clonal phage supernatant (peptide fused to pIII of the bacteriophage)) [Phage-3053]",–,–,2.16,0.68,–
